Data as given in patent US20210371490A1 (MILTENYI BIOTEC B V, published 2021).

Target: T1, TSPAN8 (UniProt P19075 1-237, limits assumed)
T1 sequence (looked up): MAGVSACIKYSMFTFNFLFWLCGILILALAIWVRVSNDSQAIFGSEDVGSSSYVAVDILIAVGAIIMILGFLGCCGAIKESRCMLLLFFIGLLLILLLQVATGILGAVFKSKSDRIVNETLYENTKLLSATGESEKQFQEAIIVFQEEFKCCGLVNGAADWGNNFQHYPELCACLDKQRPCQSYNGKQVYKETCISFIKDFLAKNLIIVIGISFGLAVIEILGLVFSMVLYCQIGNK
Experiment: cell-based or functional assay

cytokine release after 24 h co-culture with AsPC1 cells (MACSPlex), against the TSPAN8 CD8a CAR T cells: 10 fold lower
B1: TSPAN8_hl_Sig4 CAR (other)
chain: EVKLLESGGGLVQPGGSMRLSCAASGFTFTDFYMNWIRQPAGKAPEWLGFIRNKASGYTTEYNPSVKGRFTISRDNTQNMLYLQMNTLRAEDTATYYCARAHSYYGYDYFDYWGQGVMVTVSSGGGGSGGGGSGGGGSDIQMTQSPASLSASLEEIVTITCQASQDIGNWLSWYQQKPGKSPQLLIYGATSLADGVPSRFSGSRSGTQYSLKISRLQVEDIRIYYCLQAYSAPWTFGGGTKLELKAASYPPVIVEMNSSVEAIEGSHVSLLCGADSNPPPLLTWMRDGTVLREAVAESLLLELEEVTPAEDGVYACLAENAYGQDNRTVGLSVMYAPWKPTVNGTMVAVEGETVSILCSTQSNPDPILTIFKEKQILSTVIYESELQLELPAVSPEDDGEYWCVAENQYGQRATAFNLSVEFAPVLLLESHCAAARDTVQCLCVVKSNPEPSVAFELPSRNVTVNESEREFVYSERSGLVLTSILTLRGQAQAPPRVICTARNLYGAKSLELPFQGAHRLMWAKIGPIYIWAPLAGTCGVLLLSLVITLYCKRGRKKLLYIFKQPFMRPVQTTQEEDGCSCRFPEEEEGGCELRVKFSRSADAPAYQQGQNQLYNELNLGRREEYDVLDKRRGRDPEMGGKPRRKNPQEGLYNELQKDKMAEAYSEIGMKGERRRGKGHDGLYQGLSTATKDTYDALHMQALPPR
